Biological target: ubiquitinated proteins of yeast cells
Test: Flag purification from yeast cells, anti-Ub immunoblot

| Substance | reduction in the amount of ubiquitinated protein recovered, against Flag-Rad23 | interaction remaining, compared to the wildtype protein |
| --- | --- | --- |
| Flag-rad23^uba1 (yeast Rad23 L183A, amino-terminal Flag epitope) (from UniProt P32628 1-398) | 80% |  |
| Flag-rad23^Δuba1 (yeast Rad23 with residues 141-190 removed, amino-terminal Flag epitope) (from UniProt P32628 1-140; P32628 191-398) |  | 1% |
